From patent publication US20250361317A1 (Janssen / Centocor, published 2025)

Assays:
[1] = target: T1, human EMR2 (ADGRE2, CD312) on cells (human, UniProt Q9UHX3 24-823); assay: cell-based or functional assay
T1 sequence: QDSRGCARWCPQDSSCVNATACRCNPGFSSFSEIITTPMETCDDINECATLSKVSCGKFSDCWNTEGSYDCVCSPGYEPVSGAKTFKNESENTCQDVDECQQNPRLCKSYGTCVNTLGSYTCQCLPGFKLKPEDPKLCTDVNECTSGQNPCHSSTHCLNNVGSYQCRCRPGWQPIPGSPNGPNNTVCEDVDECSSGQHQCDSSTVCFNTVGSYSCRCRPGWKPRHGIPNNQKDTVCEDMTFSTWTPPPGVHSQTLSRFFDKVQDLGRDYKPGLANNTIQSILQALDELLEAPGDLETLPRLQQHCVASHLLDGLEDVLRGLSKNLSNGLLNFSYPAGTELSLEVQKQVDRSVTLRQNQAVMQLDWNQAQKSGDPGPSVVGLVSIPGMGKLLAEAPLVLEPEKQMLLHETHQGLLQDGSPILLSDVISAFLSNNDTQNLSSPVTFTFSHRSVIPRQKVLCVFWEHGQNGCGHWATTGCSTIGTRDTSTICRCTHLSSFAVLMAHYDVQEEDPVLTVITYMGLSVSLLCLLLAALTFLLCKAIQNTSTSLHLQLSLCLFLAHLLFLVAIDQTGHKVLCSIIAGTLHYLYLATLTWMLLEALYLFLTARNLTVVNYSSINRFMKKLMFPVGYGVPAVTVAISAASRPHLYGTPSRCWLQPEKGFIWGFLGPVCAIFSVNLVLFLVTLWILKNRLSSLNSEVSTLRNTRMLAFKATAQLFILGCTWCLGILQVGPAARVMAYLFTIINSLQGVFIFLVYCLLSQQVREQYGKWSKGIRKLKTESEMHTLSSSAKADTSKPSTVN

[2] = target: T2, T-cell receptor with TRBV19 (Vβ17) beta chain on human T cells (human); assay: cell-based or functional assay
FcRn (cyno) = target: T3, FcRn (cyno) (cynomolgus monkey, UniProt Q8SPV9 24-297; Q8SPW0 21-119); assay: FcRn binding (cyno, pH 6)
T3 construct: also called neonatal Fc receptor, cynomolgus monkey

[3] = target: T4, EMR2W4, huEMR2 GAIN domain + GPS, D261-T540, with C-terminal Avi/6x His tag (human); assay: SPR protein binding (human), binding to EMR2W4
T4 construct: also called Human EMR2 GAIN domain protein
T4 chain: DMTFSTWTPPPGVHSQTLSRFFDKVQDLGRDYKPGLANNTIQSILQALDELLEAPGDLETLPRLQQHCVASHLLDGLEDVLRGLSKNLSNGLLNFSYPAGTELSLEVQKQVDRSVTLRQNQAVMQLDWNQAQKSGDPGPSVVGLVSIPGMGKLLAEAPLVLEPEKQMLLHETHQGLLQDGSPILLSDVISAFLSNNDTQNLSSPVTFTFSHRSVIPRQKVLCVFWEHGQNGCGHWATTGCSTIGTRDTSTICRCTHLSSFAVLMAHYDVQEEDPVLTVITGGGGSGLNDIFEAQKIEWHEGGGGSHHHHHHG

[4] = target: T4, EMR2W4, huEMR2 GAIN domain + GPS, …; assay: SPR, EMR2 arm, forced degradation study: pH 8.5
[5] = target: T4, EMR2W4, huEMR2 GAIN domain + GPS, …; assay: SPR, EMR2 arm, forced degradation study: Thermal
[6] = target: T4, EMR2W4, huEMR2 GAIN domain + GPS, …; assay: SPR, EMR2 arm, forced degradation study: chemical oxidation
[7] = target: T1, human EMR2 (ADGRE2, CD312) on cells; assay: flow cytometry, OCI-AML2 cells, 1 hour at 37 °C; mean ± SEM
Method: (§1) After secondary detection with AF647-labeled material, the MFI signal was analyzed to generate an EC50 value. Curves are representative of 3 independent experiments.

[8] = target: T1, human EMR2 (ADGRE2, CD312) on cells; assay: flow cytometry, OCI-AML5 cells, 1 hour at 37 °C; mean ± SEM
Method: as §1

[9] = target: T2, T-cell receptor with TRBV19 (Vβ17) beta …; assay: flow cytometry, percent TRBV19+ of live pan-T cells, Donor 1, 1 hour, 37 °C

T2 sequence (A0A075B6N1 22-114): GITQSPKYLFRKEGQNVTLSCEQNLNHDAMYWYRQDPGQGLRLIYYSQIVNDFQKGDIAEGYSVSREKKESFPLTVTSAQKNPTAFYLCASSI
T3 sequence (Q8SPV9 24-297 limits assumed, chain 1 of 2): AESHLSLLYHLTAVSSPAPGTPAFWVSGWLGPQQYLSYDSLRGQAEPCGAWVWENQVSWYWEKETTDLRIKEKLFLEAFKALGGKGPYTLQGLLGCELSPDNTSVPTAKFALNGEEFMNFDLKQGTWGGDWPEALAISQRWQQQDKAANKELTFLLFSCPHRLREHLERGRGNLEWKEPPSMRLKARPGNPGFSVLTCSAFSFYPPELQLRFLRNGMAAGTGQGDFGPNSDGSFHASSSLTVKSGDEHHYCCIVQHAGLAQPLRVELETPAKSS
T3 sequence (Q8SPW0 21-119 limits assumed, chain 2 of 2): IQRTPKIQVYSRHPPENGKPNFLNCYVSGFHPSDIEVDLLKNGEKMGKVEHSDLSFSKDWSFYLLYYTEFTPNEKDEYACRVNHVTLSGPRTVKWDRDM

B1: EMVBB8 (EMR2 x TRBV19 bispecific antibody) (bispecific antibody, human IgG1, kappa, L234A L235A)
heavy 1: DIQMTQSPSSLSASVGDRVTITCRSSQSLVHSNRNTYLHWYQQKPGCAPKLLIYKVSNRFSGVPSRFSGSGSGTDFTLTISSLQPEDFATYYCSQSTHVPFTFGQGTKLEIKGGGSGGSGGCPPCGGSGGQVQLQESGPGLVKPSETLSLTCTVSGYSITSGYFWNWIRQFPGKGLEWMGYISYDGSNNYNPSLKSRITISRDTSKNQFSLKLSSVTAADTAVYYCASPSPGTGYAVDYWGCGTTVTVSSEPKSSDKTHTCPPCPAPEAAGGPSVFLFPPKPKDTLMISRTPEVTCVVVSVSHEDPEVKFNWYVDGVEVHNAKTKPREEQYNSTYRVVSVLTVLHQDWLNGKEYKCKVSNKALPAPIEKTISKAKGQPREPQVYTLPPSREEMTKNQVSLWCLVKGFYPSDIAVEWESNGQPENNYKTTPPVLDSDGSFFLYSKLTVDKSRWQQGNVFSCSVMHEALHNHYTQKSLSLSPGK
heavy 2: EVQLVESGGGLVQPGGSLRLSCTASGFTFSRYSMNWVRQAPGEGLEWVSYISSSSNTIYYADSVKGRFTISRDNAKNSLYLQMNSLRDEDTAVYYCARDQGTPFDYWGQGTLVTVSSASTKGPSVFPLAPSSKSTSGGTAALGCLVKDYFPEPVTVSWNSGALTSGVHTFPAVLQSSGLYSLSSVVTVPSSSLGTQTYICNVNHKPSNTKVDKKVEPKSCDKTHTCPPCPAPEAAGGPSVFLFPPKPKDTLMISRTPEVTCVVVSVSHEDPEVKFNWYVDGVEVHNAKTKPREEQYNSTYRVVSVLTVLHQDWLNGKEYKCKVSNKALPAPIEKTISKAKGQPREPQVYTLPPSREEMTKNQVSLSCAVKGFYPSDIAVEWESNGQPENNYKTTPPVLDSDGSFFLVSKLTVDKSRWQQGNVFSCSVMHEALHNRFTQKSLSLSPGK
light: EIVLTQSPSSVSASIGDRVTITCRASQDISSWLGWYQQKPGKAPKLLIYAAISLQSGVPSRFSGSESGTDFTLTISSLQPEDFATYYCHQANSFPLTFGGGTKVEIKRTVAAPSVFIFPPSDEQLKSGTASVVCLLNNFYPREAKVQWKVDNALQSGNSQESVTEQDSKDSTYSLSSTLTLSKADYEKHKVYACEVTHQGLSSPVTKSFNRGEC
notes: also called the bispecific antibody
- Cytotoxicity, EC50 (nM), 24 hours, PBMC + OCI-AML3 (Table 10) [1]: 0.02 nM
- Cytotoxicity, EC50 (nM), 48 hours, PBMC + OCI-AML3 (Table 10) [1]: 0.01 nM
- Cytotoxicity, EC50 (nM), 72 hours, PBMC + OCI-AML3 (Table 10) [1]: 0.004 nM
- Cytotoxicity, EC50 (nM), 96 hours, PBMC + OCI-AML3 (Table 10) [1]: 0.003 nM
- Cytotoxicity, EC50 (nM), 120 hours, PBMC + OCI-AML3 (Table 10) [1]: 0.004 nM
- Pan-T-cell activation (CD25), EC50 (nM), 24 hours, PBMC + OCI-AML3 (Table 10) [2]: 0.02 nM
- Pan-T-cell activation (CD25), EC50 (nM), 48 hours, PBMC + OCI-AML3 (Table 10) [2]: 0.01 nM
- Pan-T-cell activation (CD25), EC50 (nM), 72 hours, PBMC + OCI-AML3 (Table 10) [2]: 0.01 nM
- Pan-T-cell activation (CD25), EC50 (nM), 96 hours, PBMC + OCI-AML3 (Table 10) [2]: 0.01 nM
- Pan-T-cell activation (CD25), EC50 (nM), 120 hours, PBMC + OCI-AML3 (Table 10) [2]: 0.01 nM
- Kd (FcRn (cyno)): 454 nM
- Kd [3]: 0.193 nM
- Kd [4]: 0.25 nM
- Kd [5]: 0.22 nM
- Kd [6]: 0.2 nM
- EC50 [7]: 55 nM
- EC50 [8]: 27 nM
- EC50 [9]: 7.8 nM
